Consider one molecule from patent US20110301073, “Novel DNA-binding proteins and uses thereof” (Sangamo BioSciences, Inc., published 2011).

The target in data set [1] is T1, TALE13 +28 FokI (Xanthomonas axonopodis (engineered)).
T1 chain: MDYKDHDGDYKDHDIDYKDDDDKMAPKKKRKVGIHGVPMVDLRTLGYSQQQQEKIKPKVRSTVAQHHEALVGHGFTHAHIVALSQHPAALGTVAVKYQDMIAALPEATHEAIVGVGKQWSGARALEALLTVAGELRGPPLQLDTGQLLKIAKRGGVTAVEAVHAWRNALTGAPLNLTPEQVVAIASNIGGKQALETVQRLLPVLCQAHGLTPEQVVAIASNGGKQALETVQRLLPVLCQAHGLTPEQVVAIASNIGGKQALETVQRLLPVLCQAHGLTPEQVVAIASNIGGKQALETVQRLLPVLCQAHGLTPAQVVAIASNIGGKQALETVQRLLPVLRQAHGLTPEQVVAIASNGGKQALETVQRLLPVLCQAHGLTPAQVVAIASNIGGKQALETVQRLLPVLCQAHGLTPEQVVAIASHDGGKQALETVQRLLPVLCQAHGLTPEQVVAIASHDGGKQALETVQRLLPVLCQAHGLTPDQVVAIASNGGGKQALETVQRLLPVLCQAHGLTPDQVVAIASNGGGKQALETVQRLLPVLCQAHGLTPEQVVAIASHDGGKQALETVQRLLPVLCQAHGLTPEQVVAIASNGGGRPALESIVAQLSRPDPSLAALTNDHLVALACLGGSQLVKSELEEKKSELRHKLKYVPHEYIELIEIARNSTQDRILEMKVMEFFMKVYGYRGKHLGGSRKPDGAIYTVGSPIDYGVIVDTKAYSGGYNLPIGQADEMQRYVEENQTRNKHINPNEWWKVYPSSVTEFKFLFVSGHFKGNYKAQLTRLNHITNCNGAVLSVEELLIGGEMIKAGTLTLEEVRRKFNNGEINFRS
In words: cleavage_in_vitro; two inverted sites, 16 bp gap; NEB Buffer 2, 37 C. To be noted: tags: FLAG, NLS, chain copies: 2. As for the experimental part: (§1) TALE domain fusions were also constructed using Fold cleavage half domains. For these examples, wild type FokI half cleavage domains were used so that for nuclease activity, a homodimer must be formed from two of the fusions. For these fusions, the TALE13 DNA binding domain was fused to each FokI half domain by cloning the TALE DNA binding domain into a plasmid adjacent to FokI-specifying sequence. In addition, various linkers were tested for use between the DNA binding domain and the nuclease domain. Linkers L2 and L8 were used which are as follows: L2=GS (SEQ ID NO:71) and L8=[…] (SEQ ID NO:72). The target sites were cloned into a TOPO2.1 target vector (Invitrogen) with varying gap spacings between each target binding site such that the two were separated from each other by 2 to 22 bp. PCR amplification of an approximately 1 kb region of the target vector was done to generate the target DNAs. The TALE DNA binding domains were also truncated as described previously, and are described using the same nomenclature as described above in Examples 2 and 6. The TALE domain nuclease fusion clones were expressed in the TNT Rabbit Reticulocyte Lysate system by adding 5 μL of water containing 250 nanograms of the nuclease fusion clone plasmid to 20 μL of lysate and incubating at 30° C. for 90 minutes.
(§2) The lysate was then used to cleave the target DNAs as follows: 2.5 μL of lysate were added to a 50 μL reaction containing 50 nanograms of PCR-amplified target DNA and a final Buffer 2 (New England Biolabs) concentration of 1×. The cleavage reaction was for one hour at 37° C., followed by a 20 minute heat inactivation stage at 65° C. The reaction was then centrifuged at high speed to separate the target DNA from the lysate, causing the lysate to condense into a pellet in the reaction well. The DNA-containing supernatant was pipetted off and run on an ethidium bromide-stained agarose gel (Invitrogen) to separate intact target DNA from cleaved target DNA. The agarose gel was then analyzed using AlphaEaseFC (Alpha Innotech) software to measure the amount of target DNA present in the large uncleaved DNA band and the two smaller DNA bands resulting from a single cleavage event of the target DNA. The percentage of cleaved DNA out of the total amount of target DNA loaded into the gel represents the percent cleavage in each reaction.

The target of data set [2] is T2, TALE13 +63 FokI (Xanthomonas axonopodis (engineered)).
T2 chain: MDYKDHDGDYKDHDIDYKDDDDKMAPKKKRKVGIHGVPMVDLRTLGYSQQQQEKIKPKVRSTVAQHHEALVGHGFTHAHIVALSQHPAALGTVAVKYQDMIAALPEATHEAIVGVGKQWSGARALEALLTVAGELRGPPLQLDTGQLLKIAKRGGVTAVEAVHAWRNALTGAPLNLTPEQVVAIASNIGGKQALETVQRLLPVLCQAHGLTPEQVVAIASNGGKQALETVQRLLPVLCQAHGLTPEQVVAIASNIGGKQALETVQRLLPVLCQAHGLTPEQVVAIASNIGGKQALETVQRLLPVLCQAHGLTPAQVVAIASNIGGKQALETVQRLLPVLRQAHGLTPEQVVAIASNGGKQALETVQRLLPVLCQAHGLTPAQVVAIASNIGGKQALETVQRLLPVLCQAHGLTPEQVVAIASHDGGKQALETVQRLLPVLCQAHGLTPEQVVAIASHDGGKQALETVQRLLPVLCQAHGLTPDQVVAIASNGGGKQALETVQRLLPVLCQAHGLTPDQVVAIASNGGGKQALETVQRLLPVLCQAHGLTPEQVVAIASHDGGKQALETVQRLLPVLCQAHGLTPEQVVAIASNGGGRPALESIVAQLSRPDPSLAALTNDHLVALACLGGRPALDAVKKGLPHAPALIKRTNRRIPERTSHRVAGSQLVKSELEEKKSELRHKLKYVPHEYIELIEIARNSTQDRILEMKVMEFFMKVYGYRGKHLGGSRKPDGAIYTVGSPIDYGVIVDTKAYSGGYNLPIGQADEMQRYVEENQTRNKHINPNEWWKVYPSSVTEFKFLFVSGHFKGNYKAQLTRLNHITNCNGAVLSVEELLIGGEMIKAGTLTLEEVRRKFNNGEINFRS
The description is as above. The following applies: tags: FLAG, NLS, chain copies: 2. Here is the method:
as §1, §2

B1: TALE13 target (dsDNA)
DNA 1: TATAAATACCTTCT
DNA 2: AGAAGGTATTTATA
Regarding B1, the activity in data set [1] amounted to 100 % cleavage; in data set [2], 70 % cleavage.
